Measurements as given in the supplement of paper PMC10899765.

Assays:
Settings in all cases: 20 nM; 72 h
[1] = tested on: MCF10A; assay: one-nucleolus phenotype percent effect (relative to siNT 0% and siNOL11 100%); higher = more cells with one nucleolus (ribosome biogenesis inhibition)
Procedure: (§1)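 After 72 h, cells were fixed and stained with Hoechst and anti-fibrillarin, and nucleoli per nucleus were counted with CellProfiler. Values are plate-adjusted percent effect for the one-nucleolus and 5+ nucleoli phenotypes, normalised to siNT (0%) and to the positive controls siNOL11 or siKIF11 (100%), as the mean of biological triplicates. Percent viability is the nuclei count relative to siNT.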

[2] = tested on: MCF10A; assay: percent viability (nuclei count relative to siNT); higher = more viable cells
Procedure: as §1

[3] = tested on: MCF10A; assay: 5+ nucleoli phenotype percent effect (relative to siNT 0% and siKIF11 100%); higher = more cells with five or more nucleoli
Procedure: as §1

UCUGUGAGACCAAAGAACUACU [hsa-miR-4677-3p]
one-nucleolus phenotype percent effect [1]: 23.1%
percent viability [2]: 28.6%
5+ nucleoli phenotype percent effect [3]: -42.7%

CAAAAGUGAUCGUGGUUUUUG [hsa-miR-548t-5p]
one-nucleolus phenotype percent effect [1]: -10.3%
percent viability [2]: 51.5%
5+ nucleoli phenotype percent effect [3]: 9.99%

CUUCUGAUCAAGAUUUGUGGUG [hsa-miR-4762-3p]
one-nucleolus phenotype percent effect [1]: 18.9%
percent viability [2]: 30.5%
5+ nucleoli phenotype percent effect [3]: -38.7%

UCAAGUAGUUUCAUGAUAAAGG [hsa-miR-5697]
one-nucleolus phenotype percent effect [1]: -14.6%
percent viability [2]: 118%
5+ nucleoli phenotype percent effect [3]: 12.5%

CUCGCCCUGUCUCCCGCUAG [hsa-miR-6726-3p]
one-nucleolus phenotype percent effect [1]: -28.4%
percent viability [2]: 126%
5+ nucleoli phenotype percent effect [3]: 66.4%

AGUGGCAAAGUCUUUCCAUAU [hsa-miR-3688-5p]
one-nucleolus phenotype percent effect [1]: 16%
percent viability [2]: 31.6%
5+ nucleoli phenotype percent effect [3]: -15.4%

UUAUUGUCACGUUCUGAUU [hsa-miR-5701]
one-nucleolus phenotype percent effect [1]: 4.81%
percent viability [2]: 22.2%
5+ nucleoli phenotype percent effect [3]: 3.43%

AUCGGGAAUGUCGUGUCCGCCC [hsa-miR-425-3p]
one-nucleolus phenotype percent effect [1]: -1.79%
percent viability [2]: 109%
5+ nucleoli phenotype percent effect [3]: -1.09%

UGUCUACUACUGGAGACACUGG [hsa-miR-934]
one-nucleolus phenotype percent effect [1]: 22.5%
percent viability [2]: 37.1%
5+ nucleoli phenotype percent effect [3]: -13.1%

UGCUGGAUCAGUGGUUCGAGUC [hsa-miR-1287]
one-nucleolus phenotype percent effect [1]: 64.1%
percent viability [2]: 25.2%
5+ nucleoli phenotype percent effect [3]: -26.2%

UGGGUUCCUGGCAUGCUGAUUU [hsa-miR-23b-5p]
one-nucleolus phenotype percent effect [1]: 2.38%
percent viability [2]: 59.2%
5+ nucleoli phenotype percent effect [3]: 1.4%

GAAAGAGAGCUGAGUGUG [hsa-miR-4311]
one-nucleolus phenotype percent effect [1]: 31.2%
percent viability [2]: 26.3%
5+ nucleoli phenotype percent effect [3]: -27.3%

UAUGUCUGCUGACCAUCACCUU [hsa-miR-654-3p]
one-nucleolus phenotype percent effect [1]: 28.2%
percent viability [2]: 38%
5+ nucleoli phenotype percent effect [3]: -34.7%

CCUGAUCCCACAGCCCACCU [hsa-miR-3151-3p]
one-nucleolus phenotype percent effect [1]: -1.47%
percent viability [2]: 66.1%
5+ nucleoli phenotype percent effect [3]: 2.64%

AAAUGGGUGGUCUGAGGCAA [hsa-miR-4506]
one-nucleolus phenotype percent effect [1]: 36.1%
percent viability [2]: 46.9%
5+ nucleoli phenotype percent effect [3]: -7.36%

UUCCACUGCCACUACCUAAUUU [hsa-miR-6509-3p]
one-nucleolus phenotype percent effect [1]: -4.11%
percent viability [2]: 56.2%
5+ nucleoli phenotype percent effect [3]: -18.4%

AGGGACUUUUGGGGGCAGAUGUG [hsa-miR-365a-5p]
one-nucleolus phenotype percent effect [1]: -13.1%
percent viability [2]: 56%
5+ nucleoli phenotype percent effect [3]: 58.6%

AGGAGCUAGCCAGGCAUAUGCA [hsa-miR-4633-3p]
one-nucleolus phenotype percent effect [1]: 37.9%
percent viability [2]: 15.3%
5+ nucleoli phenotype percent effect [3]: -40.1%

CCUGCAGAGAGGAAGCCCUUC [hsa-miR-3158-5p]
one-nucleolus phenotype percent effect [1]: 26.4%
percent viability [2]: 38.5%
5+ nucleoli phenotype percent effect [3]: -45.3%

UGACCUCUCCGCUCCGCACAG [hsa-miR-6821-3p]
one-nucleolus phenotype percent effect [1]: 7.28%
percent viability [2]: 38.9%
5+ nucleoli phenotype percent effect [3]: -22.7%

ACUUGGGCACUGAAACAAUGUCC [hsa-miR-635]
one-nucleolus phenotype percent effect [1]: -11.4%
percent viability [2]: 65.6%
5+ nucleoli phenotype percent effect [3]: 32.7%

UAAUACUGCCUGGUAAUGAUGA [hsa-miR-200b-3p]
one-nucleolus phenotype percent effect [1]: -28.6%
percent viability [2]: 104%
5+ nucleoli phenotype percent effect [3]: 93.4%

CCAGUUACCGCUUCCGCUACCGC [hsa-miR-935]
one-nucleolus phenotype percent effect [1]: 15.8%
percent viability [2]: 59%
5+ nucleoli phenotype percent effect [3]: -23.4%

GGGAGGUGUGAUCUCACACUCG [hsa-miR-3689d]
one-nucleolus phenotype percent effect [1]: 24.8%
percent viability [2]: 9.66%
5+ nucleoli phenotype percent effect [3]: 10.8%

AAGGUAUUGUUCAGACUUAUGA [hsa-miR-4678]
one-nucleolus phenotype percent effect [1]: 5.33%
percent viability [2]: 38.9%
5+ nucleoli phenotype percent effect [3]: -18%

AUUUGUGCUUGGCUCUGUCAC [hsa-miR-2113]
one-nucleolus phenotype percent effect [1]: -12.4%
percent viability [2]: 98.6%
5+ nucleoli phenotype percent effect [3]: 9.63%

CUAUACGACCUGCUGCCUUUCU [hsa-let-7d-3p]
one-nucleolus phenotype percent effect [1]: -15.3%
percent viability [2]: 84.7%
5+ nucleoli phenotype percent effect [3]: 18.1%

CAUCAGCACCCUAUGUCCUUUCU [hsa-miR-3617-3p]
one-nucleolus phenotype percent effect [1]: 29.5%
percent viability [2]: 20%
5+ nucleoli phenotype percent effect [3]: -20.3%

UGGAUUUCUUUGUGAAUCACCA [hsa-miR-876-5p]
one-nucleolus phenotype percent effect [1]: -21.7%
percent viability [2]: 143%
5+ nucleoli phenotype percent effect [3]: 24.8%

CAAAGUCCUUCCUAUUUUUCCC [hsa-miR-6507-3p]
one-nucleolus phenotype percent effect [1]: -3.22%
percent viability [2]: 104%
5+ nucleoli phenotype percent effect [3]: -15.5%

AGCAUACACCUGUAGUCCUAGA [hsa-miR-5689]
one-nucleolus phenotype percent effect [1]: 0.904%
percent viability [2]: 66.7%
5+ nucleoli phenotype percent effect [3]: 2.26%

UUCCUGGGCUUCUCCUCUGUAG [hsa-miR-6783-3p]
one-nucleolus phenotype percent effect [1]: -1.45%
percent viability [2]: 88.9%
5+ nucleoli phenotype percent effect [3]: 7.93%

UUGGGUUUUCUCUUCAAUCCAG [hsa-miR-6839-3p]
one-nucleolus phenotype percent effect [1]: 14.2%
percent viability [2]: 22.3%
5+ nucleoli phenotype percent effect [3]: -18.2%

UUCUGAGCUGAGGACAG [hsa-miR-4303]
one-nucleolus phenotype percent effect [1]: -2.54%
percent viability [2]: 45.5%
5+ nucleoli phenotype percent effect [3]: -10.7%

UGGUCUGUCUCUGCCCUGGCAC [hsa-miR-6753-3p]
one-nucleolus phenotype percent effect [1]: 39.6%
percent viability [2]: 21.6%
5+ nucleoli phenotype percent effect [3]: -4.31%

CAGGCAGUGACUGUUCAGACGUC [hsa-miR-2682-5p]
one-nucleolus phenotype percent effect [1]: 51.4%
percent viability [2]: 12.3%
5+ nucleoli phenotype percent effect [3]: -23.5%

AGACAUCAAGAUCAGUCCCAAA [hsa-miR-3913-3p]
one-nucleolus phenotype percent effect [1]: 34.3%
percent viability [2]: 21.7%
5+ nucleoli phenotype percent effect [3]: 10.4%

CUAGGAGGCCUUGGCC [hsa-miR-4266]
one-nucleolus phenotype percent effect [1]: 7.31%
percent viability [2]: 52.6%
5+ nucleoli phenotype percent effect [3]: -14.2%

AAACUAAUAUACCCAUAUUCUG [hsa-miR-5583-5p]
one-nucleolus phenotype percent effect [1]: -23.4%
percent viability [2]: 115%
5+ nucleoli phenotype percent effect [3]: 35.5%

AUACCCAUAGCUUAGCUCCCA [hsa-miR-5591-3p]
one-nucleolus phenotype percent effect [1]: 47%
percent viability [2]: 16.2%
5+ nucleoli phenotype percent effect [3]: -19.5%

AAGGGAAGAUGGUGACCAC [hsa-miR-9500]
one-nucleolus phenotype percent effect [1]: 15.1%
percent viability [2]: 26%
5+ nucleoli phenotype percent effect [3]: -15.3%

UGGUGGGCACAGAAUCUGGACU [hsa-miR-541-3p]
one-nucleolus phenotype percent effect [1]: 17.6%
percent viability [2]: 24.6%
5+ nucleoli phenotype percent effect [3]: -0.0057%

UCACUACCUGACAAUACAGU [hsa-miR-4999-3p]
one-nucleolus phenotype percent effect [1]: -25.2%
percent viability [2]: 52.7%
5+ nucleoli phenotype percent effect [3]: 0.698%

CCUGCGUGUUUUCUGUCCAA [hsa-miR-4520b-5p]
one-nucleolus phenotype percent effect [1]: 1.66%
percent viability [2]: 51%
5+ nucleoli phenotype percent effect [3]: -6.92%

AAAUCUCUGCAGGCAAAUGUGA [hsa-miR-216b]
one-nucleolus phenotype percent effect [1]: -16.2%
percent viability [2]: 97.3%
5+ nucleoli phenotype percent effect [3]: 44.2%

UUCUCUCUGUCUUUCUCUCUCAG [hsa-miR-6873-3p]
one-nucleolus phenotype percent effect [1]: -19%
percent viability [2]: 35.2%
5+ nucleoli phenotype percent effect [3]: 46.6%

CCGGGGCAGAUUGGUGUAGGGUG [hsa-miR-5090]
one-nucleolus phenotype percent effect [1]: -10.2%
percent viability [2]: 82%
5+ nucleoli phenotype percent effect [3]: 24.7%

ACUGGCUAGGGAAAAUGAUUGGAU [hsa-miR-664a-5p]
one-nucleolus phenotype percent effect [1]: 16.3%
percent viability [2]: 47.9%
5+ nucleoli phenotype percent effect [3]: 8.84%
